Measured values as given in patent US20210060169A1.

Molecular target: human IL-2Rαβγ (human) (UniProt P01589)
Assay: cell-based or functional assay

Sequence of 8His-S4(oAzZK) (P60568 other isoform, or with tags, fused parts or gaps): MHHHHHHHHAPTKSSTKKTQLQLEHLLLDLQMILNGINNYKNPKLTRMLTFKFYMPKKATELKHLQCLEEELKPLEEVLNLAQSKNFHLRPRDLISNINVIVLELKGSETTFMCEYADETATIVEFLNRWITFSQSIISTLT
Sequence of human IL-2Rαβγ (human) (P01589 22-272, chain 1 of 3): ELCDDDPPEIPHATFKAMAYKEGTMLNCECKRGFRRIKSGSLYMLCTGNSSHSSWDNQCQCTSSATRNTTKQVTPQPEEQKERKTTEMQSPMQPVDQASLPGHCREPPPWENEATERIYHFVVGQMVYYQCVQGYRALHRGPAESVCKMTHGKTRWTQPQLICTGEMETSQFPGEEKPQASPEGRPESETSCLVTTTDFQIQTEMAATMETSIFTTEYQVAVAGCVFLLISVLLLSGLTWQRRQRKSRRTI
Sequence of human IL-2Rαβγ (human) (P14784 27-551, chain 2 of 3, further chain): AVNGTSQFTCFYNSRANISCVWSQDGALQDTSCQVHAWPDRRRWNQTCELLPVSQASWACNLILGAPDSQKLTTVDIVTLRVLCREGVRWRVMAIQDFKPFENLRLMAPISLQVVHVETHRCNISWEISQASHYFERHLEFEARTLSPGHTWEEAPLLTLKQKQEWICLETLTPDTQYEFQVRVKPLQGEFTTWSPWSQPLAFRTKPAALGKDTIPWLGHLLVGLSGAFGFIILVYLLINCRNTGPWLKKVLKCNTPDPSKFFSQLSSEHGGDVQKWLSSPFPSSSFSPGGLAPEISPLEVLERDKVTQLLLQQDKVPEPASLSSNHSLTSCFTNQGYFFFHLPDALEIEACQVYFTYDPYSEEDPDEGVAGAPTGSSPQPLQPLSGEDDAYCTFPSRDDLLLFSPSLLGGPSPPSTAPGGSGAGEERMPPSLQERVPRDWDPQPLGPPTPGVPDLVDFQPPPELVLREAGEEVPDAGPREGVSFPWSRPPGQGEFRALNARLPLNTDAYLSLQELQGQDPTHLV
Sequence of human IL-2Rαβγ (human) (P31785 23-369, chain 3 of 3, further chain): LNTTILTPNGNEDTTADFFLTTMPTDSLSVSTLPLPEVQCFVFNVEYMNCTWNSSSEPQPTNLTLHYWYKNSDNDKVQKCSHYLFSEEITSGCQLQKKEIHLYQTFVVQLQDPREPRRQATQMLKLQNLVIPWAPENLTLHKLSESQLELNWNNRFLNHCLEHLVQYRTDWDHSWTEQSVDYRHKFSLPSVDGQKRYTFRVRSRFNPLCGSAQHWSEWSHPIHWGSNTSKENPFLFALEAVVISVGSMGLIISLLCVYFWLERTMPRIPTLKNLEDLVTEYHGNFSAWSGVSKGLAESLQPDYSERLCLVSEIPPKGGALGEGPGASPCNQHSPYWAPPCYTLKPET

Substance “8His-S4(oAzZK) (from UniProt P60568 25-153) (ligand)” has a Standardized EC50 ratio value of less than 5.
